Here are results for 12 molecules from patent US20110223107A1 (ALETHIA BIOTHERAPEUTICS, published 2011).

Changes are numbered by the printed parent chain. Where “and” joins values, the source holds several entries; their conditions need not be identical. Equal values may be shown once. Read-outs that look alike come from different tables or passages of the source.

Usually EC50 (read off the curve) stands for the concentration needed to bring the measured effect to its halfway point. The term Kd denotes the constant that tells how readily two partners part at equilibrium. In general, koff refers to the first-order rate constant of dissociation. As a reminder, the kon is a measure of how fast the partners come together.

Assay [1] addresses T1, recombinant Fc-KAAG1 fusion protein (full-length KAAG1) (human, UniProt Q9UBP8 1-84, biotinylated with NHS-biotin (sites not given)).
T1 construct: also called recombinant human KAAG1; not shown: human Fc domain encoded by expression plasmid pYD5; vector-encoded residues between the Fc and the BamHI cloning site of pYD5
T1 sequence: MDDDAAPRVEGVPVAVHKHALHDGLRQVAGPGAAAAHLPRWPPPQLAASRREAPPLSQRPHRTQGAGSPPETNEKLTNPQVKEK
The assay is described as follows: ELISA. The procedure:
(§1) The 96-well master plate of monoclonal preparations contained different concentrations of purified anti-KAAG1 Fabs in each well. A second stock master plate was prepared by diluting the Fabs to a final concentration of 10 μg/ml from which all subsequent dilutions were performed for ELISA measurements. To carry out the binding of Fc-KAAG1 to the monoclonal preparations, the Fc-KAAG1 was biotinylated with NHS-biotin (Pierce, Rockford, Ill.) and 10 ng/well was coated in a streptavidin 96-well plate. One nanogram of each Fab monoclonal preparation was added to each well and incubated at room temperature for 30 minutes. Bound antibody was detected with HRP-conjugated mouse anti-kappa light chain antibody in the presence of TMB liquid substrate (Sigma-Aldrich Canada Ltd., Oakville, ON) and readings were conducted at 450 nm in microtiter plate reader.
On the technique in general: An ELISA detects its analyte on a solid surface through an enzyme-linked reagent.

Assay [2] concerns the target T1, recombinant Fc-KAAG1 fusion protein …. Put plainly: ELISA. The source holds these as a separate data set.
The target in assay [3] is T2, Fc-fused truncated mutant of KAAG1 spanning amino acids 1-35 (human).
T2 construct: also called truncated mutant of KAAG1 1-35; first 35 amino acids of KAAG1; not shown: human Fc domain encoded by expression plasmid pYD5; vector-encoded residues between the Fc and the BamHI cloning site of pYD5
T2 chain: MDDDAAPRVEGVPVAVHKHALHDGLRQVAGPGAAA
Put plainly: ELISA.

A further assay deals with T3, biotinylated Fc domain (UniProt P01857-1 104-330 = IgG part, limits assumed, biotinylated).
T3 construct: domain: Fc domain; Control antigen of the Fab ELISA; also called Fc domain (control)
The assay is described as follows: ELISA, biotinylated Fc domain on streptavidin plate, Fab detected with HRP anti-kappa. The procedure: as §1

The target in assay [4] is T4, KAAG1 (Kidney associated antigen 1), endogenous, on cancer cells and in tumour tissue (human, UniProt Q9UBP8 1-84).
T4 construct: also called KAAG1 antigen
T4 sequence: T1 sequence
Put plainly: cell-based ELISA on fixed, non-permeabilised OV-90 cells. The procedure: (§2) KAAG1 is expressed on the surface of ovarian cancer cells. […] Following extensive washing of the cells, bound antibody was detected with HRP-conjugated anti-human IgG as a secondary antibody in a modified cell-based ELISA (see FIG. 16A). […] Additionally, the 3D3 antibody produced the strongest signal implying that the epitope targeted by this antibody was the most accessible in this assay. […] A second approach used was flow cytometry. In this case, a mouse 3D3 anti-KAAG1 antibody was incubated with SKOV-3 ovarian cancer cells at saturating conditions and following extensive washing, the bound 3D3 anti-KAAG1 antibody was detected with anti-mouse IgG conjugated to FITC in a flow cytometer.

Assay [5] concerns the target T1, recombinant Fc-KAAG1 fusion protein …. Put plainly: ELISA on recombinant Fc-KAAG1. The procedure: as §1
Since an antibody harboring effector functions was required, the h3D3 was assembled as a human IgG₁. ELISA-based assays were performed to directly compare the ability of the h3D3 […]. The methods used to perform these tests were as described in Example 3 using recombinant Fc-KAAG1.

Assay [6] concerns the target T4, KAAG1 (Kidney associated antigen 1), …. The assay is described as follows: cell-based ELISA on fixed, non-permeabilised TOV-21G cells. The procedure:
as §2

Assay [7] addresses T5, monomeric recombinant KAAG1 (Homo sapiens (Human), UniProt Q9UBP8 1-84, limits assumed).
T5 construct: Analyte of the Biacore experiment
T5 sequence: T1 sequence
The assay is described as follows: SPR (Biacore), antibody captured by anti-human Fc, 1:1 fit. The procedure: (§3) More precise measurements were conducted using Surface Plasmon Resonance (SPR) in a Biacore instrument. Kinetic analysis was used to compare the affinity of the chimeric 3D3 with the h3D3 as well as with hybrid antibodies encompassing different permutations of the light and heavy chains (see FIG. 18B). Briefly, anti-human Fc was immobilized on the Biacore sensor chip and chimeric or h3D3 was captured on the chip. Different concentrations of monomeric recombinant KAAG1 were injected and the data were globally fitted to a simple 1:1 model to determine the kinetic parameters of the interaction.
(In general: SPR reads the build-up and loss of mass on a sensor chip optically.)

Assay [8] addresses T5, monomeric recombinant KAAG1. The assay is described as follows: SPR (Biacore): antibody captured on immobilised anti-human Fc, monomeric recombinant KAAG1 injected, global 1:1 fit; average KD; chimeric 3D3 tabulated as 'm3D3' in FIG. 18B. The procedure:
as §3

The target is the same in assay [9]. Put plainly: SPR (Biacore): antibody captured on immobilised anti-human Fc, monomeric recombinant KAAG1 injected, global 1:1 fit; average KD; chimeric light + chimeric heavy chain, 'CC' in FIG. 18B. The procedure:
as §3

The target of assay [10] is T1, recombinant Fc-KAAG1 fusion protein …. Put plainly: ELISA on Fc-KAAG1. The procedure: as §1
Expression of human IgG1s in 293E cells—The expression vectors prepared above that encoded the light and heavy chain immunoglobulins were expressed in 293E cells using the transient transfection system (Durocher et al., 2002). The methods used for co-transfecting the light and heavy chain expression vectors were described in Example 3. […] The ability of the chimeric anti-KAAG1 monoclonal antibodies to bind to recombinant Fc-KAAG1 was measured in the ELISA and compared with the original mouse Fabs. The method was described in Example 3. […]

B1: G8 (Fab, V domains shown)
VH: QVQLKQSGAELVRPGASVTLSCKASGYTFTDYEVHWVKQTPVHGLEWIGVIDPATGDTAYNQKFKGKATLTADKSSSTAYMEVSSLTSEDSAVYYCMGYSDYWGQGTTLTVSS
VL: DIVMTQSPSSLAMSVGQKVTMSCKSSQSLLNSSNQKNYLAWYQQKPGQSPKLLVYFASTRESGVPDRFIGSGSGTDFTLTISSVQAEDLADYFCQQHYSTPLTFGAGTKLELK
notes: also called Fab of well G8
Take B1: the OD450 in [1] and in assay [2] was 1.72 in each case.

B2: G12 (Fab, V domains shown)
VH: EVQLQQSVAELVRPGASVTVSCKASGYIFTDYEIHWVKQTPAHGLEWIGVIDPETGNTAFNQKFKGKATLTADISSSTAYMELSSLTSEDSAVYYCMGYSDYWGQGTTLTVSS
VL: DIVMTQSPKFMSTSVGDRVSITCKASQDVGTAVAWYQQKPGQSPELLIYWTSTRHTGVPDRFSGSGSGTDFTLTISSVQAEDLADYFCQQHYSIPLTFGAGTKLELR
notes: also called Fab of well G12
As for B2, the OD450 in assay [1] and in assay [2] was 1.38 in each case.

B3: Fab of well C2 (Omniclonal AL0003Z1 plate) (Fab, V domains shown)
VH: DVQLQESGPDLVKPSQSLSLTCTVTGFSITSGYGWHWIRQFPGNKLEWMGYISFNGDSNYNPSLKSRISITRDTSKNQFFLQLNSVTSEDTATYYCASSYDGLFAYWGQGPLVTVSA
VL: DIQMTQSPSSMYASLGERVTLTCKASQDIHNYLNWFQQKPGKSPKTLIHRANRLVAGVPSRFSGSGSGQDYSLTISSLEYEDLGIYYCLQYDAFPLTFGAGTKLELK
As for B3, the OD450 in assay [1] stood at 0.32; in assay [2], 0.32; in assay [3], 1.97. Moreover, the binding result in the assay with biotinylated Fc domain is on record as “no binding”.

B4: Fab of well D1 (Omniclonal AL0003Z1 plate) (Fab, V domains shown)
VH: B3 VH with D1E, N44D, S58Y, N84S, S88T, P111T
VL: B3 VL with Q3K, L21I, N31T, K45E, H49Y, A56D, L83M, A93E
In the case of B4, the OD450 amounted to 0.15 in assay [1], 0.15 in assay [2] and 1.21 in assay [3]. The binding result with biotinylated Fc domain was “no binding”.

B5: 3C4 mouse-human chimeric IgG1 anti-KAAG1 monoclonal antibody (antibody, V domains shown)
VH: B3 VH with D1E, S53N, F54Y, N55D, D57H, S58N, N59D, R72Q, S88T, P111T
VL: DIVMSQSPSSMYASLGERVTITCKASQDIHNFLNWFQQKPGKSPKTLIFRANRLVDGVPSRFSGSGSGQDYSLTISSLEFEDLGIYSCLQYDEIPLTFGAGTKLELRA
notes: Mouse variable regions on human kappa and human IgG1 constant regions, expressed in 293E cells; also called chimeric 3C4
In the case of B5, in [4], the “EC50 (read off the curve)” value was ~0.6 µg/mL.

B6: 3C4 mouse anti-KAAG1 Fab (Fab, V domains shown)
VH: B3 VH with D1E, S53N, F54Y, N55D, D57H, S58N, N59D, R72Q, S88T, P111T
VL: DIVMSQSPSSMYASLGERVTITCKASQDIHNFLNWFQQKPGKSPKTLIFRANRLVDGVPSRFSGSGSGQDYSLTISSLEFEDLGIYSCLQYDEIPLTFGAGTKLELR
notes: Recombinant mouse Fab prepared from E. coli; also called 3C4 Fab; well C4
For the molecule B6, the OD450 in assay [1] turned out to be 0.25; in assay [2], 0.25; in assay [3] it was 1.93. Moreover, in the assay with biotinylated Fc domain, the binding result is on record as “no binding”.

B7: Fab of well E10 (Omniclonal AL0003Z1 plate) (Fab, V domains shown)
VH: EVQLQQSGPELVKPGASVKISCKASGDTFTDYYMNWVKQSHGKSLEWIGDINPNYGGITYNQKFKGKATLTVDTSSSTAYMELRGLTSEDSAVYYCQAYYRNSDYWGQGTTLTVSS
VL: DIVMTQAAPSVPVTPGESVSISCRSSKSLLHSNGNTYLYWFLQRPGQSPQLLIYRMSNLASGVPDRFSGSGSGTAFTLRISRVEAEDVGVYYCMQHLEYPYTFGGGTKLEIK
Regarding B7, the OD450 in [1] and in [2] was 0.02 in each case.

B8: A9 (Fab, V domains shown)
VH: QVQVQQPGAELVRPGASVTLSCKASGYIFTDYEVHWVRQRPVHGLEWIGVIDPETGDTAYNQKFKGKATLTADKSSSTAYMELSSLTAEDSAVYYCIGYADYWGQGTTLTVSS
VL: DIVMTQSPSSLAMSLGQKVTMSCKSSQSLLNSNNQLNYLAWYQQKPGQSPKLLVYFASTRKSGVPDRFIGSGSGTDFTLTITSVQAEDLADYFCQQHFNTPLTFGAGTKLELK
notes: also called Fab of well A9
In the case of B8, the OD450 in assay [1] is 1.53; in [2], 1.53; in [3], 0.1.

B9: 3G10 mouse anti-KAAG1 Fab (Fab, V domains shown)
VH: EIQLQQSGPELVKPGASVKISCKASGYTFTDNYMNWVKQSHGKSLEWIGDINPYYGTTTYNQKFKGKATLTVDKSSRTAYMELRGLTSEDSAVYYCARDDWFDYWGQGTLVTVSA
VL: DVLMTQTPRSLSVSLGDQASISCRSSQSLLHSNGNTYLEWYLQKPGQPPKVLIYKVSNRFSGVPDRFSGSGSGTDFTLKISGVEAEDLGVYYCFQGSHVPLTFGAGTKLELK
notes: Recombinant mouse Fab prepared from E. coli; also called 3G10 Fab; well G10
For the molecule B9, the OD450 in [1] and in [2] was 2.78 each time. In the assay with biotinylated Fc domain, the binding result is on record as “no binding”.

B10: C3 (Fab, V domains shown)
VH: EVQLQQSVAEVVRPGASVTLSCKASGYTFTDYEIHWVKQTPVHGLEWIGVIDPETGVTAYNQRFRDKATLTTDKSSSTAYMELSSLTSEDSAVYFCMGYSDYWGQGTTLTVSS
VL: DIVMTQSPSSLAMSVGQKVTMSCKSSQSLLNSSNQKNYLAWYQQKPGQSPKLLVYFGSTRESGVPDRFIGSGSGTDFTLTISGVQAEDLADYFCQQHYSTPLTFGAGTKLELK
notes: also called Fab of well C3
In the case of B10, the OD450 in assay [1] and in assay [2] was 1.04 in each case.

B11: 3D3 mouse-human chimeric IgG1 anti-KAAG1 monoclonal antibody (antibody, V domains shown)
VH: B2 VH with V20L, A42V
VL: DIVMTQSPSSLAVSIGQKVTMNCKSSQSLLNSNFQKNFLAWYQQKPGQSPKLLIYFASTRESSIPDRFIGSGSGTDFTLTISSVQAEDLADYFCQQHYSTPLTFGAGTKLELKA
notes: Mouse variable regions on human kappa and human IgG1 constant regions, expressed in 293E cells; also called chimeric 3D3; 3D3 chimeric IgG1
Regarding B11, the “EC50 (read off the curve)” value in assay [5] was ~0.4 µg/mL; in assay [4], ~0.9 µg/mL; in assay [6], ~0.6 µg/mL. Further, the Ka in [7] is 4.5e+09 M⁻¹ and 2.71e+09 M⁻¹. The Kd in assay [7] was determined as 0.368 nM; in assay [8] it was 0.235 nM; in assay [9], 0.271 nM. Also, the koff in assay [7] is 0.00065 s⁻¹ and 0.00073 s⁻¹. Besides, the kon in assay [7] was 2.91e+06 M⁻¹ s⁻¹ and 1.98e+06 M⁻¹ s⁻¹.

B12: 3D3 mouse anti-KAAG1 Fab (Fab, V domains shown)
VH: B2 VH with V20L, A42V
VL: DIVMTQSPSSLAVSIGQKVTMNCKSSQSLLNSNFQKNFLAWYQQKPGQSPKLLIYFASTRESSIPDRFIGSGSGTDFTLTISSVQAEDLADYFCQQHYSTPLTFGAGTKLELK
notes: Recombinant mouse Fab prepared from E. coli, from Omniclonal AL0003Z1; also called 3D3 Fab
Consider B12, for which the OD450 in assay [1] and in assay [2] was 1.21 throughout. For the same molecule, the “EC50 (read off the curve)” value in assay [10] was ~0.5 µg/mL. The binding result with biotinylated Fc domain is “no binding”.
